From patent publication US8202696 (MAX PLANCK GESELLSCHAFT ZUR FORDERUNG DER WISSENSCHAFTEN E V, dated 2012)
Values belong to the binder of their own block, whether it stands above or below them.

B1: MID1 B-box 1 (residues 110-165), yeast two-hybrid bait (other)
chain: TMTSAEKVLCQFCDQDPAQDAVKTCVTCEVSYCDECLKATHPNKKPFTGHRLIEPI
notes: also called BB1; isolated B-Box1; not shown: two-hybrid fusion partner; not described
B2: α4 protein, full-length, in the yeast two-hybrid system (other, human, UniProt P78318 2-339, looked up)
chain: AAEDELQLPRLPELFETGRQLLDEVEVATEPAGSRIVQEKVFKGLDLLEKAAEMLSQLDLFSRNEDLEEIASTDLKYLLVPAFQGALTMKQVNPSKRLDHLQRAREHFINYLTQCHCYHVAEFELPKTMNNSAENHTANSSMAYPSLVAMASQRQAKIQRYKQKKELEHRLSAMKSAVESGQADDERVREYYLLHLQRWIDISLEEIESIDQEIKILRERDSSREASTSNSSRQERPPVKPFILTRNMAQAKVFGAGYPSLPTMTVSDWYEQHRKYGALPDQGIAKAAPEEFRKAAQQQEEQEEKEEEDDEQTLHRAREWDDWKDTHPRGYGNRQNMG
notes: mature; also called alpha4; IGBP1 gene product; not shown: two-hybrid fusion partner

What was measured:
[1] = target: B2; experiment: yeast two-hybrid, comparison of the α4-affinities of MID1 peptides
PARKIN = target: T1, PARKIN (UniProt O60260 1-465, limits assumed); experiment: yeast two-hybrid, growth on his- leu- trp- plate
T1 construct: Two-hybrid fusion protein; fusion partner not described
T1 sequence (O60260 whole entry, the tested form may be a part): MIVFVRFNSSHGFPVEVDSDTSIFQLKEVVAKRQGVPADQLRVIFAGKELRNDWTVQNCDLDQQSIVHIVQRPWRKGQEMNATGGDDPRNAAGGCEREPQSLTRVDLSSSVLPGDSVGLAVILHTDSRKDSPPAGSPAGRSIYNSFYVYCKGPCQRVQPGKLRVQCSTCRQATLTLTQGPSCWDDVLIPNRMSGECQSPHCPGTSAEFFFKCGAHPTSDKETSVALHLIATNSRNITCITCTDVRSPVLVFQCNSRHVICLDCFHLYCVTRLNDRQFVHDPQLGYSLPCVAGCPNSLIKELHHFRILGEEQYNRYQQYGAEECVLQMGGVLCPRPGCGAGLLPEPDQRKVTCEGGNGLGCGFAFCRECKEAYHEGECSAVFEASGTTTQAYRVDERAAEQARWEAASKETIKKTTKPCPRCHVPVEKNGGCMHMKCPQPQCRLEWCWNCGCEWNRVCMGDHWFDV

HHARI = target: T2, HHARI (UniProt Q9Y4X5 1-557, limits assumed); experiment: yeast two-hybrid, growth on his- leu- trp- plate
T2 construct: Two-hybrid fusion protein; fusion partner not described
T2 sequence (Q9Y4X5 whole entry, the tested form may be a part): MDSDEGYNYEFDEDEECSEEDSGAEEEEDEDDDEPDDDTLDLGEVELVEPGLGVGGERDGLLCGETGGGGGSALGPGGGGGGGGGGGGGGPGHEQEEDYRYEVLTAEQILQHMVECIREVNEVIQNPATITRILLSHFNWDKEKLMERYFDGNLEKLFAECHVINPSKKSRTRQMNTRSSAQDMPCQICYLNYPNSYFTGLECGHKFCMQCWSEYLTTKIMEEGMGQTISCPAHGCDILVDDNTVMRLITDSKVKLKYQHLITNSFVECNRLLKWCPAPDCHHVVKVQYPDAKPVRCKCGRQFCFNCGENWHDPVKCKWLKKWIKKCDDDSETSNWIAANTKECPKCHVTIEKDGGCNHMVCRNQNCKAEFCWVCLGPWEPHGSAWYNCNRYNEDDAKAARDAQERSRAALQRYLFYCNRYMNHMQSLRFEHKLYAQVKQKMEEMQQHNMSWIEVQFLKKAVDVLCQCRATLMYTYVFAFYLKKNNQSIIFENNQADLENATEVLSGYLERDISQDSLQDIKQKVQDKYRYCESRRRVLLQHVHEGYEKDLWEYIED

[2] = target: B1; experiment: yeast two-hybrid, deletion studies with α4 (preliminary data)
[3] = target: T3, endogenous α4 of the transfected human cell lines (HeLa, U373MG) (UniProt P78318 2-339); experiment: cell-based or functional assay
T3 sequence (looked up): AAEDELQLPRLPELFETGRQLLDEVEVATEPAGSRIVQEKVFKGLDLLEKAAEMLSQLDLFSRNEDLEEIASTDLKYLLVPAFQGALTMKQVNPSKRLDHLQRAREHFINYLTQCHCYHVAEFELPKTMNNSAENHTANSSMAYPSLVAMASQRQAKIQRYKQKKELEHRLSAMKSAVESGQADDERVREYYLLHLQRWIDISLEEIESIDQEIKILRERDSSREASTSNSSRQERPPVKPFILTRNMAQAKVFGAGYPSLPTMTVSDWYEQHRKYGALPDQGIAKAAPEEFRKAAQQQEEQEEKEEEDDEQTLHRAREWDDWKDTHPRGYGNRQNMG

Binder: B1
fold increase of affinity for α4 compared to the full length MID1 protein [1]: 10 fold

Binder: B2
binding result (PARKIN): no binding
binding result (HHARI): no binding

strength of interaction relative to full-length α4 [2]: > 10 times
B3: small part of α4 (44 amino acids), yeast two-hybrid deletion construct (peptide)
peptide: ERPPVKPFILTRNMAQAKVFGAGYPSLPTMTVSDWYEQHRKYGA
notes: The range 236-279 is inferred from the equal length of 44 residues; also called peptidic fragment of α4

ratio between phosphorylated and dephosphorylated hFused-form (western blot) [3]: 3 ratio
ratio between phosphorylated and dephosphorylated hFused-form (western blot, repeat) [3]: 3 ratio
B4: myc-tagged B-box 1 of the MID1 protein (peptide, not shown: small tags and cut ends)
peptide: TMTSAEKVLCQFCDQDPAQDAVKTCVTCEVSYCDECLKATHPNKKPFTGHRLIEPIPD
